B1: Compound 61 (peptide)
peptide: Ac-FCI[Trp(1-Me)]QDWGEHRCTGAES-NH2
modifications: disulfide 2-12
SMILES: CC[C@H](C)[C@@H]1NC(=O)[C@@H](NC(=O)[C@H](Cc2ccccc2)NC(C)=O)CSSC[C@@H](C(=O)N[C@H](C(=O)NCC(=O)N[C@@H](C)C(=O)N[C@@H](CCC(=O)O)C(=O)N[C@@H](CO)C(N)=O)[C@@H](C)O)NC(=O)[C@H](CCCNC(=N)N)NC(=O)[C@H](Cc2c[nH]cn2)NC(=O)[C@H](CCC(=O)O)NC(=O)CNC(=O)[C@H](Cc2c[nH]c3ccccc23)NC(=O)[C@H](CC(=O)O)NC(=O)[C@H](CCC(N)=O)NC(=O)[C@H](Cc2cn(C)c3ccccc23)NC1=O
B2: Compound 23 (peptide)
peptide: Ac-FCIWQDWGEHRCT-NH2
modifications: disulfide 2-12
SMILES: CC[C@H](C)[C@@H]1NC(=O)[C@@H](NC(=O)[C@H](Cc2ccccc2)NC(C)=O)CSSC[C@@H](C(=O)N[C@H](C(N)=O)[C@@H](C)O)NC(=O)[C@H](CCCNC(=N)N)NC(=O)[C@H](Cc2c[nH]cn2)NC(=O)[C@H](CCC(=O)O)NC(=O)CNC(=O)[C@H](Cc2c[nH]c3ccccc23)NC(=O)[C@H](CC(=O)O)NC(=O)[C@H](CCC(N)=O)NC(=O)[C@H](Cc2c[nH]c3ccccc23)NC1=O
B3: Compound 140 (peptide)
peptide: Ac-SEFCI[Trp(1-Me)]QDWGEHRC[Sar]EGE[AEEA]ES-{X1-NH2}
modifications: disulfide 4-14
SMILES: CC[C@H](C)[C@@H]1NC(=O)[C@@H](NC(=O)[C@H](Cc2ccccc2)NC(=O)[C@H](CCC(=O)O)NC(=O)[C@H](CO)NC(C)=O)CSSC[C@@H](C(=O)N(C)CC(=O)N[C@@H](CCC(=O)O)C(=O)NCC(=O)N[C@@H](CCC(=O)O)C(=O)NCCOCCOCC(=O)N[C@@H](CCC(=O)O)C(=O)N[C@@H](CO)C(=O)N[C@@H](CCCCNC(=O)CC[C@H](NC(=O)CNC(=O)CC[C@H](NC(=O)CCCCCCCCCCCCCCCCC(=O)O)C(=O)O)C(=O)O)C(N)=O)NC(=O)[C@H](CCCNC(=N)N)NC(=O)[C@H](Cc2c[nH]cn2)NC(=O)[C@H](CCC(=O)O)NC(=O)CNC(=O)[C@H](Cc2c[nH]c3ccccc23)NC(=O)[C@H](CC(=O)O)NC(=O)[C@H](CCC(N)=O)NC(=O)[C@H](Cc2cn(C)c3ccccc23)NC1=O
B4: Compound 142 (peptide)
peptide: Ac-SEFCI[Trp(1-Me)]QDWGEHRCTEGE
modifications: disulfide 4-14; not fully specified (C-terminus); printed as Ac-SEFC(1)I[1-Me-Trp]QDWGEHRC(1)TEGE[Peg3]ES-K([17-carboxy-heptadecanoyl][γGlu])-NH2
B5: Compound 43 (peptide)
peptide: Ac-FCIWQDWGEHRCTGAE-NH2
modifications: disulfide 2-12
SMILES: CC[C@H](C)[C@@H]1NC(=O)[C@@H](NC(=O)[C@H](Cc2ccccc2)NC(C)=O)CSSC[C@@H](C(=O)N[C@H](C(=O)NCC(=O)N[C@@H](C)C(=O)N[C@@H](CCC(=O)O)C(N)=O)[C@@H](C)O)NC(=O)[C@H](CCCNC(=N)N)NC(=O)[C@H](Cc2c[nH]cn2)NC(=O)[C@H](CCC(=O)O)NC(=O)CNC(=O)[C@H](Cc2c[nH]c3ccccc23)NC(=O)[C@H](CC(=O)O)NC(=O)[C@H](CCC(N)=O)NC(=O)[C@H](Cc2c[nH]c3ccccc23)NC1=O
B6: Compound 128 (peptide)
peptide: Ac-SEFCI[Trp(1-Me)]QDWGEHRC[Sar]EGE-{AEEA-AEEA-K(γGlu-Gly-γGlu-19-carboxy-nonadecanoyl)-NH2}
modifications: disulfide 4-14
notes: also called comp 128
B7: Compound 126 (peptide)
peptide: Ac-SEFCI[Trp(1-Me)]QDWGEHRCTEGE-{AEEA-AEEA-X1-NH2}
modifications: disulfide 4-14
SMILES: CC[C@H](C)[C@@H]1NC(=O)[C@@H](NC(=O)[C@H](Cc2ccccc2)NC(=O)[C@H](CCC(=O)O)NC(=O)[C@H](CO)NC(C)=O)CSSC[C@@H](C(=O)N[C@H](C(=O)N[C@@H](CCC(=O)O)C(=O)NCC(=O)N[C@@H](CCC(=O)O)C(=O)NCCOCCOCC(=O)NCCOCCOCC(=O)N[C@@H](CCCCNC(=O)CC[C@H](NC(=O)CNC(=O)CC[C@H](NC(=O)CCCCCCCCCCCCCCCCC(=O)O)C(=O)O)C(=O)O)C(N)=O)[C@@H](C)O)NC(=O)[C@H](CCCNC(=N)N)NC(=O)[C@H](Cc2c[nH]cn2)NC(=O)[C@H](CCC(=O)O)NC(=O)CNC(=O)[C@H](Cc2c[nH]c3ccccc23)NC(=O)[C@H](CC(=O)O)NC(=O)[C@H](CCC(N)=O)NC(=O)[C@H](Cc2cn(C)c3ccccc23)NC1=O
B8: Compound 130 (peptide)
peptide: Ac-SEFCI[Trp(1-Me)]QDWGEHRCTEGEGGGK([γGlu-Gly-γGlu-C18 diacid])-NH2
modifications: disulfide 4-14
SMILES: CC[C@H](C)[C@@H]1NC(=O)[C@@H](NC(=O)[C@H](Cc2ccccc2)NC(=O)[C@H](CCC(=O)O)NC(=O)[C@H](CO)NC(C)=O)CSSC[C@@H](C(=O)N[C@H](C(=O)N[C@@H](CCC(=O)O)C(=O)NCC(=O)N[C@@H](CCC(=O)O)C(=O)NCC(=O)NCC(=O)NCC(=O)N[C@@H](CCCCNC(=O)CC[C@H](NC(=O)CNC(=O)CC[C@H](NC(=O)CCCCCCCCCCCCCCCCC(=O)O)C(=O)O)C(=O)O)C(N)=O)[C@@H](C)O)NC(=O)[C@H](CCCNC(=N)N)NC(=O)[C@H](Cc2c[nH]cn2)NC(=O)[C@H](CCC(=O)O)NC(=O)CNC(=O)[C@H](Cc2c[nH]c3ccccc23)NC(=O)[C@H](CC(=O)O)NC(=O)[C@H](CCC(N)=O)NC(=O)[C@H](Cc2cn(C)c3ccccc23)NC1=O
B9: Compound 29 (peptide)
peptide: Ac-EGSAICIWQDWGEHRCT-NH2
modifications: disulfide 6-16
SMILES: CC[C@H](C)[C@H](NC(=O)[C@H](C)NC(=O)[C@H](CO)NC(=O)CNC(=O)[C@H](CCC(=O)O)NC(C)=O)C(=O)N[C@H]1CSSC[C@@H](C(=O)N[C@H](C(N)=O)[C@@H](C)O)NC(=O)[C@H](CCCNC(=N)N)NC(=O)[C@H](Cc2c[nH]cn2)NC(=O)[C@H](CCC(=O)O)NC(=O)CNC(=O)[C@H](Cc2c[nH]c3ccccc23)NC(=O)[C@H](CC(=O)O)NC(=O)[C@H](CCC(N)=O)NC(=O)[C@H](Cc2c[nH]c3ccccc23)NC(=O)[C@H]([C@@H](C)CC)NC1=O
B10: Compound 141 (peptide)
peptide: Ac-SEFCI[Trp(1-Me)]QDWGEHRC[Sar]EGESESK([γGlu-C18 diacid])-NH2
modifications: disulfide 4-14
SMILES: CC[C@H](C)[C@@H]1NC(=O)[C@@H](NC(=O)[C@H](Cc2ccccc2)NC(=O)[C@H](CCC(=O)O)NC(=O)[C@H](CO)NC(C)=O)CSSC[C@@H](C(=O)N(C)CC(=O)N[C@@H](CCC(=O)O)C(=O)NCC(=O)N[C@@H](CCC(=O)O)C(=O)N[C@@H](CO)C(=O)N[C@@H](CCC(=O)O)C(=O)N[C@@H](CO)C(=O)N[C@@H](CCCCNC(=O)CC[C@H](NC(=O)CCCCCCCCCCCCCCCCC(=O)O)C(=O)O)C(N)=O)NC(=O)[C@H](CCCNC(=N)N)NC(=O)[C@H](Cc2c[nH]cn2)NC(=O)[C@H](CCC(=O)O)NC(=O)CNC(=O)[C@H](Cc2c[nH]c3ccccc23)NC(=O)[C@H](CC(=O)O)NC(=O)[C@H](CCC(N)=O)NC(=O)[C@H](Cc2cn(C)c3ccccc23)NC1=O
B11: Compound 127 (peptide)
peptide: Ac-SEFCI[Trp(1-Me)]QDWGEHRC[Sar]EGE-{AEEA-AEEA-K(γGlu-Gly-γGlu-15-carboxy-pentadecanoyl)-NH2}
modifications: disulfide 4-14
B12: Compound 139 (peptide)
peptide: Ac-SEFCI[Trp(1-Me)]QDWGEHRC[Sar]EGESESK([γGlu-Gly-γGlu-C18 diacid])-NH2
modifications: disulfide 4-14
SMILES: CC[C@H](C)[C@@H]1NC(=O)[C@@H](NC(=O)[C@H](Cc2ccccc2)NC(=O)[C@H](CCC(=O)O)NC(=O)[C@H](CO)NC(C)=O)CSSC[C@@H](C(=O)N(C)CC(=O)N[C@@H](CCC(=O)O)C(=O)NCC(=O)N[C@@H](CCC(=O)O)C(=O)N[C@@H](CO)C(=O)N[C@@H](CCC(=O)O)C(=O)N[C@@H](CO)C(=O)N[C@@H](CCCCNC(=O)CC[C@H](NC(=O)CNC(=O)CC[C@H](NC(=O)CCCCCCCCCCCCCCCCC(=O)O)C(=O)O)C(=O)O)C(N)=O)NC(=O)[C@H](CCCNC(=N)N)NC(=O)[C@H](Cc2c[nH]cn2)NC(=O)[C@H](CCC(=O)O)NC(=O)CNC(=O)[C@H](Cc2c[nH]c3ccccc23)NC(=O)[C@H](CC(=O)O)NC(=O)[C@H](CCC(N)=O)NC(=O)[C@H](Cc2cn(C)c3ccccc23)NC1=O

Starred links: 1 amine or outer side, 2 acyl side, 3 side chain; linkers in the order of their positions; H or OH if unused. Positions of bridges follow the written chain, without caps; N, C: chain ends. Non-standard residues stand in square brackets, D forms with d. Groups on a side chain read outwards from the residue. No end group written: not given here. *: point of attachment. X1 = K(γGlu-G-γGlu-17-carboxy-heptadecanoyl), O=C(O)CCCCCCCCCCCCCCCCC(=O)N[C@@H](CCC(=O)NCC(=O)N[C@@H](CCC(=O)NCCCC[C@H](N[*:1])C(=O)[*:2])C(=O)O)C(=O)O; Trp(1-Me) = Cn1cc(C[C@H](N)C(=O)O)c2ccccc21; C18 diacid = O=C(O)CCCCCCCCCCCCCCCCC(=O)*; γGlu = O=C(O)[C@H](CCC(=O)[*:2])N[*:1]; AEEA = NCCOCCOCC(=O)O; Sar = CNCC(=O)O

In general, Kd refers to the free concentration of one partner at which half of the binding sites on the other are occupied at equilibrium, for simple one-to-one binding.

T1 sequence (P01024 23-1663 limits assumed): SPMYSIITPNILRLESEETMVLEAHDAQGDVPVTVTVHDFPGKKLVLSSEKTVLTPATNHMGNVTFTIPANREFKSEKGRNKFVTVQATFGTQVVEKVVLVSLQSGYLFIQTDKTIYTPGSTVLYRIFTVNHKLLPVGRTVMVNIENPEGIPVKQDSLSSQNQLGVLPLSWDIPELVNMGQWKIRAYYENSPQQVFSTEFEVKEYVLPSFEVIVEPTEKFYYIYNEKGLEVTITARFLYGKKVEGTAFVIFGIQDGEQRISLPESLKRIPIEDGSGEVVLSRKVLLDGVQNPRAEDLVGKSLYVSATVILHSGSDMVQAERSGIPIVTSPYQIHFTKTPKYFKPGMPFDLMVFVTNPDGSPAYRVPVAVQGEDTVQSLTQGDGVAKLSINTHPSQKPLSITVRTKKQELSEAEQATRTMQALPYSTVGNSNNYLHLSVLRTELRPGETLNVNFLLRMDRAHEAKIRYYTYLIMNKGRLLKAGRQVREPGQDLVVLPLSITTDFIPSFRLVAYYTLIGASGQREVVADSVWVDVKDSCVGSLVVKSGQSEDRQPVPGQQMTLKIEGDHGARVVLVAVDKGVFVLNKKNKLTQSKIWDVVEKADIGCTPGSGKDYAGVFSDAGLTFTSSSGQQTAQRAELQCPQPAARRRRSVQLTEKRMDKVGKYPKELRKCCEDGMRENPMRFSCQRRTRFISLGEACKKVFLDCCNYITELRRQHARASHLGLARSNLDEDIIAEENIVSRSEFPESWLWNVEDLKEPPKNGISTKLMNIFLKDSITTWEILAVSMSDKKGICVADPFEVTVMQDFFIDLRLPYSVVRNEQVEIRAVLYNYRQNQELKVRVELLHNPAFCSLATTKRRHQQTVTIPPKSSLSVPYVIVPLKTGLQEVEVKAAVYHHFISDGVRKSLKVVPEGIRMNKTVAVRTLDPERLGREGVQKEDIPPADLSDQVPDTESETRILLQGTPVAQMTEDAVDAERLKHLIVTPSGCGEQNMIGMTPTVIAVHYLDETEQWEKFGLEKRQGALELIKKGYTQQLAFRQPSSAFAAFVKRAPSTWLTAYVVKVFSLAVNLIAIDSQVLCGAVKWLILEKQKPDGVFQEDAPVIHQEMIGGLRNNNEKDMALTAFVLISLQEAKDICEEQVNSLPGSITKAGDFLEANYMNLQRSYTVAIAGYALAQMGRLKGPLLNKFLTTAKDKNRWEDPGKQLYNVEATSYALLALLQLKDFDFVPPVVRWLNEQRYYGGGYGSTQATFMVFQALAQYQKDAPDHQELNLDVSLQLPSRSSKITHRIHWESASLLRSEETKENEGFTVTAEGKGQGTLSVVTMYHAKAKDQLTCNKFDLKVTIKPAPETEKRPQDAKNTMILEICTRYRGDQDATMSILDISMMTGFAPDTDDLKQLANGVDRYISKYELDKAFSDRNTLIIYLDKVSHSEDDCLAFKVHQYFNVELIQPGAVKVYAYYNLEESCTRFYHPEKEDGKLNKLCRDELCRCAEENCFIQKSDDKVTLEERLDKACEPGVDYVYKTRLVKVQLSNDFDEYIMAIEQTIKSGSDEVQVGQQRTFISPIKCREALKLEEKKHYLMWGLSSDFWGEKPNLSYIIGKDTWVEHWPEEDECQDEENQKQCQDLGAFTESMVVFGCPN

One assay addresses T1, Human C3 (Complement tech cat #A113c) (human, UniProt P01024 23-1663).
T1 construct: Purified protein immobilised by amine coupling in the SPR assay; in the haemolysis assay it is the C3 of diluted human serum; Native C3 consists of a beta and an alpha chain cut from one precursor; also called C3 protein
The assay can be described thus: SPR (Biacore T200), human C3 immobilised, peptide injected, 1:1 fit. The method, then:
Surface plasmon resonance (SPR) was used to characterize peptides with respect to their binding affinity (Kd) for C3. Human C3 (Complement tech cat #A113c) was immobilised on individual flow cells of CM5 sensor chips (GE Healthcare) using standard amine coupling to a density of approximately 3000 resonance units (RU) in a buffer consisting of 10 mM phosphate pH 7.4, 150 mM NaCl, 0.05% Tween20.
For interaction experiments a multi-cycle experiment approach was used and performed using a BiacoreT200™ instrument (GE Healthcare) at 25° C. Peptides were injected in increasing concentration series (6-8 different concentrations) for 60-120 sat a flow rate of 30 µL/min in a buffer consisting of 10 mM Tris buffer at pH 7.4, with 150 mM NaCl and 0.05% Tween20. This was followed by a dissociation period for up to 10 min. The C3 surface was regenerated between runs by a 45 s injection of 3 M MgCl_2.
Background: SPR reads the build-up and loss of mass on a sensor chip optically.
In turn, B1 registered a Kd of 0.33 nM.

In turn, B2 had a Kd of 2.8 nM.

Regarding B3, the Kd is 7.6 nM.

In turn, B4 showed a Kd of 4.8 nM.

B5 gave a Kd of 3.3 nM.

Consider B6, for which the Kd turned out to be 6.5 nM.

The molecule B7 came in with an equilibrium dissociation constant (Kd) of 5.2 nM.

B8 had an equilibrium dissociation constant (Kd) of 4.4 nM.

B9 gave a Kd of 21 nM.

B10 registered a Kd of 6.6 nM.

As to B11, the dissociation constant Kd came to 8.5 nM.

B12 returned a dissociation constant Kd of 7.4 nM.

A further assay addresses T1, Human C3 (Complement tech cat #A113c). The assay can be described thus: cell-based or functional assay.
As to B1, the “inhibition of hemolysis IC50” value was less than 100 nM.

With B2, the “inhibition of hemolysis IC50” value was less than 100 nM.

Take B3: the “inhibition of hemolysis IC50” value is less than 100 nM.

Turning to B4, the “inhibition of hemolysis IC50” value is less than 100 nM.

In the case of B5, the “inhibition of hemolysis IC50” value was less than 100 nM.

On to B6, for which the “inhibition of hemolysis IC50” value was less than 100 nM.

Regarding B7, the “inhibition of hemolysis IC50” value was less than 100 nM.

With B8, the “inhibition of hemolysis IC50” value was less than 100 nM.

Take B9: the “inhibition of hemolysis IC50” value is less than 100 nM.

Regarding B10, the “inhibition of hemolysis IC50” value was less than 100 nM.

Take B11: the “inhibition of hemolysis IC50” value is less than 100 nM.

Regarding B12, the “inhibition of hemolysis IC50” value was less than 100 nM.
